25 molecules from US20220177594A1 can be followed below.

To fix the notation:
B1: Mu_10F07_VH (SEQ ID NO: 39)_D99A (antibody, V domains shown)
VH: DVKLVESGEGLVKPGGSLKLSCAASGFTFSSYAMSWVRQTPEKRLEWVTYISSGGDYFYYADTVKGRFTISRDNARNTLYLQMSSLKSEDTAMYYCTRAPITGTFAYWGQGTLVTVSA
VL: DIQMTQTTSSLSASLGDRVTISCRASQDITNYLNWYQQKPDGTVKLLIYYTSTLHSGVPSRFSGSGSGTDFSLTISNLEQEDIATYFCQQGHMLPWTFGGGTKLEIKR
B2: Mu_02D09_VH (SEQ ID NO: 31)_D31A (antibody, V domains shown)
VH: EVQLVESGGGLVKPGGSLTLSCAASGFTFSAYGMHWLRQAPEKGLEWVAYISSGSRAVFFADTVKGRFTISRDNAKNTLFLQMTSLRSDDTAMYYCARDRYDGRGFAYWGQGTLVTVSA
VL: DIVLTQSPATLSVTPGDSVSLSCRASQSISNNLHWYQQTSHESPRLLITYASQSISGIPSRFSGSGSGTDFTLSINSVETEDFGMYFCQQSNSWPLTFGAGTKLELKR
B3: Mu_02D09_VH (SEQ ID NO: 31)_Y32A (antibody, V domains shown)
VH: B2 VH with A31D, Y32A
VL: B2 VL
B4: Mu_02D09_VL (SEQ ID NO: 33)_Q27A (antibody, V domains shown)
VH: B2 VH with A31D
VL: B2 VL with Q27A
B5: Mu_02D09_VL (SEQ ID NO: 33)_S56A (antibody, V domains shown)
VH: B2 VH with A31D
VL: B2 VL with S56A
B6: Mu_19F07_VH (SEQ ID NO: 47)_Y33A (antibody, V domains shown)
VH: EVKLVESEGGLVQPGSSMKLSCTASGFTFSDYAMAWVRQVPEKGLEWVANINYDGSSTYYLDSLKSRFIISRDNAKNILYLQMSSLKSEDTATYYCARGLTWDFDVWGTGTTVTVSS
VL: DIVMTQSHKFMSPSVGDRVSITCKASQDVDTAVAWYQQKPGQSPKLLIYLASTRHTGVPDRFTGSGSGTDFTLTISNVQSEDLADYFCQQYSRFPLTFGAGTKLELKR
B7: Mu_19F07_VH (SEQ ID NO: 47)_F104A (antibody, V domains shown)
VH: B6 VH with A33Y, F104A
VL: B6 VL
B8: Mu_19F07_VL (SEQ ID NO: 49)_F94A (antibody, V domains shown)
VH: B6 VH with A33Y
VL: B6 VL with F94A
B9: Mu_19F07_VL (SEQ ID NO: 49)_L50A (antibody, V domains shown)
VH: B6 VH with A33Y
VL: B6 VL with L50A
B10: Mu_19F07_VL (SEQ ID NO: 49)_T53A (antibody, V domains shown)
VH: B6 VH with A33Y
VL: B6 VL with T53A
B11: Mu_19F07_VL (SEQ ID NO: 49)_Q90A (antibody, V domains shown)
VH: B6 VH with A33Y
VL: B6 VL with Q90A
B12: Mu_19F07_VH (SEQ ID NO: 47)_Y59A (antibody, V domains shown)
VH: B6 VH with A33Y, Y59A
VL: B6 VL
B13: Mu_19F07_VL (SEQ ID NO: 49)_Q89A (antibody, V domains shown)
VH: B6 VH with A33Y
VL: B6 VL with Q89A
B14: Mu_09E09_VH (SEQ ID NO: 35)_Y50A (antibody, V domains shown)
VH: B1 VH with T49A, Y50A, F58I, A99D
VL: B1 VL with I2L, T30N, F71Y, H92N, M93T
B15: Mu_09E09_VL (SEQ ID NO: 37)_L94A (antibody, V domains shown)
VH: B1 VH with T49A, F58I, A99D
VL: B1 VL with I2L, T30N, F71Y, H92N, M93T, L94A
B16: Mu_10F07_VH (SEQ ID NO: 39)_I101A (antibody, V domains shown)
VH: B1 VH with A99D, I101A
VL: B1 VL
B17: Mu_09E09_VH (SEQ ID NO: 35)_D99A (antibody, V domains shown)
VH: B1 VH with T49A, F58I
VL: B1 VL with I2L, T30N, F71Y, H92N, M93T
B18: Mu_10F07_VL (SEQ ID NO: 41)_Y50A (antibody, V domains shown)
VH: B1 VH with A99D
VL: B1 VL with Y50A
B19: Mu_09E09_VL (SEQ ID NO: 37)_Y32A (antibody, V domains shown)
VH: B1 VH with T49A, F58I, A99D
VL: B1 VL with I2L, T30N, Y32A, F71Y, H92N, M93T
B20: Mu_09E09_VH (SEQ ID NO: 35)_F105A (antibody, V domains shown)
VH: B1 VH with T49A, F58I, A99D, F105A
VL: B1 VL with I2L, T30N, F71Y, H92N, M93T
B21: Mu_09E09_VL (SEQ ID NO: 37)_N34A (antibody, V domains shown)
VH: B1 VH with T49A, F58I, A99D
VL: B1 VL with I2L, T30N, N34A, F71Y, H92N, M93T
B22: Mu_09E09_VH (SEQ ID NO: 35)_P100A (antibody, V domains shown)
VH: B1 VH with T49A, F58I, A99D, P100A
VL: B1 VL with I2L, T30N, F71Y, H92N, M93T
B23: Mu_09E09_VH (SEQ ID NO: 35)_Y57A (antibody, V domains shown)
VH: B1 VH with T49A, Y57A, F58I, A99D
VL: B1 VL with I2L, T30N, F71Y, H92N, M93T
B24: Mu_09E09_VH (SEQ ID NO: 35)_T102A (antibody, V domains shown)
VH: B1 VH with T49A, F58I, A99D, T102A
VL: B1 VL with I2L, T30N, F71Y, H92N, M93T
B25: Mu_09E09_VL (SEQ ID NO: 37)_G91A (antibody, V domains shown)
VH: B1 VH with T49A, F58I, A99D
VL: B1 VL with I2L, T30N, F71Y, G91A, H92N, M93T

Where a chain is given by its changes, count along the chain named.

Chain of Canine_OSMR_hlgG1_Fc (canine) (chain, as listed by the source limits assumed, form in doubt): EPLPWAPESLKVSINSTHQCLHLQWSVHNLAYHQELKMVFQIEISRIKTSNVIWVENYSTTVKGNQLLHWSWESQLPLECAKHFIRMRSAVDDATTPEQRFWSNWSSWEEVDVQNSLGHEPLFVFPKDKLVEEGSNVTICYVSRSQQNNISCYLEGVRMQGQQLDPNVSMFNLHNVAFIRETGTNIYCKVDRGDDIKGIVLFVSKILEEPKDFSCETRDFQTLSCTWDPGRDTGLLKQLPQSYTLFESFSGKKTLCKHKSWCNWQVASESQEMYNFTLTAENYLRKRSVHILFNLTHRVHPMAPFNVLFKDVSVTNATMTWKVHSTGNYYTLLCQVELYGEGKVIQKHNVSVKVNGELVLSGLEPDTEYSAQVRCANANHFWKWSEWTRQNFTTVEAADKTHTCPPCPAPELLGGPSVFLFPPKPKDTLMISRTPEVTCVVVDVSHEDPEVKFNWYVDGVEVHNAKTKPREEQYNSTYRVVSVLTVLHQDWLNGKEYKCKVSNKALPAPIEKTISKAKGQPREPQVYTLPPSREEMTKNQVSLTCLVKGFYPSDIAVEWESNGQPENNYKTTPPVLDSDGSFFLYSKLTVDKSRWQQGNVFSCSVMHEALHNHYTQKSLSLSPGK

One assay has as its target Canine_OSMR_hlgG1_Fc (canine). In words: SPR Biacore.
For the molecule B1, the Kd was found to be 11.2 nM, the off-rate (koff) was found to be 0.000576 s⁻¹ and the kon is 51600 M⁻¹ s⁻¹.

Consider B2, for which the dissociation constant (Kd) is 3.92 nM, the off-rate (koff) is 0.00356 s⁻¹ and the kon came to 908000 M⁻¹ s⁻¹.

Molecule B3 came in with a Kd of 34.8 nM, a koff of 0.0246 s⁻¹ and a kon of 707000 M⁻¹ s⁻¹.

B4 came in with a Kd of 35 nM, a koff of 0.00441 s⁻¹ and a kon of 126000 M⁻¹ s⁻¹.

The molecule B5 had a Kd of 159 nM, a koff of 0.00653 s⁻¹ and a kon of 41200 M⁻¹ s⁻¹.

For another assay, the target named is Feline_OSMR_hlgG1_Fc (feline). In words: SPR Biacore.
Chain of Feline_OSMR_hlgG1_Fc (feline) (chain, as listed by the source limits assumed, form in doubt): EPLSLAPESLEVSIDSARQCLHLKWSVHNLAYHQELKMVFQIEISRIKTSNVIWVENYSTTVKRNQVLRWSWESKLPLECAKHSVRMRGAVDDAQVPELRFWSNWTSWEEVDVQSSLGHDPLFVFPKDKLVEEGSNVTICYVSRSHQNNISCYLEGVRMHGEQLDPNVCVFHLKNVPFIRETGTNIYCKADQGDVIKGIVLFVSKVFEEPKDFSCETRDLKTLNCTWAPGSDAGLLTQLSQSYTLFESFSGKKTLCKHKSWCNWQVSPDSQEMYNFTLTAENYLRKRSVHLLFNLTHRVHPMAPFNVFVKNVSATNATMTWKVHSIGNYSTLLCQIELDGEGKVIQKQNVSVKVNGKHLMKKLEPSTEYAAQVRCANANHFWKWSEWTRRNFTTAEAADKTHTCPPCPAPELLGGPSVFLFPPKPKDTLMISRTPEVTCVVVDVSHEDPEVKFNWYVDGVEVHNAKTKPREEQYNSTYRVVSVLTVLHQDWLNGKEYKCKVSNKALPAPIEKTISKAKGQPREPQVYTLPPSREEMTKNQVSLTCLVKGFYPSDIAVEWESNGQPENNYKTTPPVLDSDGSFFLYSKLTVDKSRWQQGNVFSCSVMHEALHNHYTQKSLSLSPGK
The molecule B6 came in with a Kd of 0.407 nM, a koff of 0.000108 s⁻¹ and a kon of 266000 M⁻¹ s⁻¹.

Take B7: the kon came to 144000 M⁻¹ s⁻¹.

Consider B8, for which the Kd came out at 0.0052 nM, the koff was 4.7e-07 s⁻¹ and the kon was determined as 90400 M⁻¹ s⁻¹.

Turning to B9, the Kd stood at 0.0143 nM, the koff worked out at 5.86e-07 s⁻¹ and the kon is 41100 M⁻¹ s⁻¹.

B10 registered a Kd of 0.00536 nM, a koff of 9.05e-07 s⁻¹ and a kon of 169000 M⁻¹ s⁻¹.

B11 displayed a Kd of 0.00048 nM, a koff of 1.31e-07 s⁻¹ and a kon of 273000 M⁻¹ s⁻¹.

B12 registered a Kd of 0.4 nM, a koff of 0.000141 s⁻¹ and an on-rate (kon) of 351000 M⁻¹ s⁻¹.

With B13, the Kd came out at 0.0511 nM, the koff was found to be 2.38e-06 s⁻¹ and the kon is 46500 M⁻¹ s⁻¹.

As for B14, the dissociation constant (Kd) turned out to be 2.85 nM, the koff came to 0.00177 s⁻¹ and the kon amounted to 622000 M⁻¹ s⁻¹.

B15 had a dissociation constant (Kd) of 0.621 nM, a koff of 0.00167 s⁻¹ and a kon of 2.68e+06 M⁻¹ s⁻¹.

For B16, the Kd was found to be 6.88 nM, the off-rate constant (koff) is 0.000701 s⁻¹ and the kon amounted to 102000 M⁻¹ s⁻¹.

As to B17, the Kd was 1.76 nM, the koff was 0.00108 s⁻¹ and the kon amounted to 612000 M⁻¹ s⁻¹.

As for B18, the Kd is 0.00714 nM, the koff was 1.73e-06 s⁻¹ and the kon came to 242000 M⁻¹ s⁻¹.

For the molecule B19, the Kd was 0.632 nM, the koff amounted to 0.00158 s⁻¹ and the kon worked out at 2.51e+06 M⁻¹ s⁻¹.

B20 registered a Kd of 2.4 nM, a koff of 0.00186 s⁻¹ and a kon of 772000 M⁻¹ s⁻¹.

As for B21, the Kd was found to be 5.02 nM, the off-rate constant (koff) amounted to 0.00161 s⁻¹ and the on-rate constant (kon) came out at 321000 M⁻¹ s⁻¹.

In the case of B22, the Kd is 1.27 nM, the off-rate constant (koff) was determined as 0.000926 s⁻¹ and the kon was 729000 M⁻¹ s⁻¹.

For B1, the Kd is 3.18 nM, the koff turned out to be 0.000704 s⁻¹ and the kon is 221000 M⁻¹ s⁻¹.

B23 had a Kd of 2.54 nM, a koff of 0.0024 s⁻¹ and a kon of 943000 M⁻¹ s⁻¹.

In turn, B24 came in with a Kd of 1.94 nM, a koff of 0.00187 s⁻¹ and a kon of 964000 M⁻¹ s⁻¹.

For B25, the Kd was 2.21 nM, the koff amounted to 0.00203 s⁻¹ and the kon came to 918000 M⁻¹ s⁻¹.

B2 came in with a Kd of 0.767 nM, a dissociation rate constant (koff) of 0.000872 s⁻¹ and a kon of 1.14e+06 M⁻¹ s⁻¹.

With B3, the Kd was 6.39 nM, the koff worked out at 0.000765 s⁻¹ and the association rate constant (kon) is 120000 M⁻¹ s⁻¹.

On to B4, for which the dissociation constant (Kd) was determined as 7.57 nM, the koff was found to be 0.00109 s⁻¹ and the kon turned out to be 144000 M⁻¹ s⁻¹.

Regarding B5, the Kd is 9.3 nM, the koff was determined as 0.00107 s⁻¹ and the kon was determined as 116000 M⁻¹ s⁻¹.

The target in a further assay is Feline_OSMR_hlgG1_Fc (feline). In words: indirect ELISA, fOSMR coated; OD ratio to antibody expression control.
On to B6, for which the ELISA ratio was 1.06 OD ratio.

B7: the ELISA ratio stood at 0.982 OD ratio.

For the molecule B8, the ELISA ratio was found to be 1.09 OD ratio.

Take B9: the ELISA ratio came to 1.11 OD ratio.

On to B10, for which the ELISA ratio is 0.821 OD ratio.

Take B11: the ELISA ratio was 1.08 OD ratio.

As to B12, the ELISA ratio stood at 0.74 OD ratio.

Regarding B13, the ELISA ratio stood at 0.985 OD ratio.

With B14, the ELISA ratio was 0.31 OD ratio.

With B15, the ELISA ratio stood at 0.055 OD ratio.

Consider B16, for which the ELISA ratio came out at 0 OD ratio.

Consider B17, for which the ELISA ratio was determined as 0.908 OD ratio.

Turning to B18, the ELISA ratio is 0 OD ratio.

For B19, the ELISA ratio was 0.092 OD ratio.

Turning to B20, the ELISA ratio was found to be 0.256 OD ratio.

Consider B21, for which the ELISA ratio was found to be 0.023 OD ratio.

Regarding B22, the ELISA ratio is 0.946 OD ratio.

Regarding B1, the ELISA ratio amounted to 0.545 OD ratio.

On to B23, for which the ELISA ratio came out at 0.052 OD ratio.

As for B24, the ELISA ratio turned out to be 0.388 OD ratio.

Turning to B25, the ELISA ratio amounted to 0.136 OD ratio.

For B2, the ELISA ratio was 0.159 OD ratio.

For B3, the ELISA ratio was determined as 0.991 OD ratio.

B4: the ELISA ratio was 0.025 OD ratio.

As for B5, the ELISA ratio is 0 OD ratio.
